Test results: patent US20230293738A1 (Y MABS THERAPEUTICS, published 2023)

Key:
[1] = biological target: T1, human 4Ig-B7H3 (B7H3-4Ig-His) (human, UniProt Q5ZPR3 29-466); assay: SPR, Biacore T200, 4Ig-B7H3-His on CM5 chip, 1:1 fit
T1 construct: Recombinant His-tagged protein immobilised on a CM5 chip; also called 41g-B7H3; human 4Ig-B7-H3 (dominant isoform); not shown: His tag
T1 sequence: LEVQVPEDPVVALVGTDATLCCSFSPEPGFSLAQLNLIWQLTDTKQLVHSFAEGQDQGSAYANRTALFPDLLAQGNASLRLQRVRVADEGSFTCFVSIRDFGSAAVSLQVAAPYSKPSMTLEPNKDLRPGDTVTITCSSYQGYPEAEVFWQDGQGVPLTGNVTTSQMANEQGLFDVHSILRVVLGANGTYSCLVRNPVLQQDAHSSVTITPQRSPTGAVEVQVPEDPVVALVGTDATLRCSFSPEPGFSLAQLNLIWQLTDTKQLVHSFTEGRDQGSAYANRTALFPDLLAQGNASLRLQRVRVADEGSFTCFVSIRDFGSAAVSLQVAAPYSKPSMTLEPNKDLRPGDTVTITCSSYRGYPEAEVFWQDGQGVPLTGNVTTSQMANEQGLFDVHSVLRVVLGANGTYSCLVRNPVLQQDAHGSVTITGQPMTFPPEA
Description: (§1) Both human B7H3 41g and 21g proteins were dissolved in PBS (Phosphate-Buffered Saline) to make 0.1 mg/ml stock solution and stored in −80° C. B7-H3 proteins were immobilized onto the CM5 sensor chip using Amine Coupling Kit. Both proteins were diluted to 10 ug/ml with 10 mM Sodium acetate, pH 5.0. […] A blank immobilized surface was used as a control
(§2) The data were analyzed by the 1:1 fitting model and default parameter setting for the rate constants using the Biacore T200 Evaluation Software, and the apparent association on rate constant (kon, ka), dissociation off rate constant (koff, kd) and equilibrium dissociation constant (KD=kd/ka) were calculated.

[2] = biological target: T1, human 4Ig-B7H3 (B7H3-4Ig-His); assay: SPR
Description: as §1, §2

[3] = biological target: T2, human 2Ig-B7H3 (B7H3-2Ig-His) (human, UniProt Q5ZPR3 29-466); assay: SPR
T2 construct: Recombinant His-tagged protein immobilised on a CM5 chip; also called 21g-B7H3; B7H3-21g-His; not shown: His tag
T2 sequence: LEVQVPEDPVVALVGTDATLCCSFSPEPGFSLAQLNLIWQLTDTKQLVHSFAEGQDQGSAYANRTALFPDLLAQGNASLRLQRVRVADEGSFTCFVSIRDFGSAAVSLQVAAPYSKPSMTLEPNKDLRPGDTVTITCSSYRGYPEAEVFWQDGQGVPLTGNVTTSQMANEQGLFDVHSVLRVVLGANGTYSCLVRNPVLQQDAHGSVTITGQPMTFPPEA
Description: as §1, §2

[4] = biological target: T2, human 2Ig-B7H3 (B7H3-2Ig-His); assay: SPR; CHX-A''-DTPA conjugate, CAR 3.6, labeled with cold 175Lu
Description: as §1
(§3) Binding Assays: [0143] 1. Antibodies were diluted in HBS-EP buffer (10 mM HEPES, 150 mM NaCl, 3 mM EDTA, 0.05% Surfactant P20, pH 7.4) at varying concentrations (25-50-100-200-400 nM) prior to analysis. […] 2. Samples (60 ul) were injected over the sensor surface at a flow rate of 30 ul/min over 2 min. [0145] 3. Following completion of the association phase, dissociation was monitored in HBS-EP buffer for 10 min at the same flow rate. […] 4. At the end of each cycle, the surface was regenerated using 10 mM NaOH at a flow rate of 50 ul/min over 2×15 sec.

[5] = biological target: T2, human 2Ig-B7H3 (B7H3-2Ig-His); assay: SPR, Biacore T200, 2Ig-B7H3-His on CM5 chip, 1:1 fit
Description: as §1, §2

[6] = biological target: T2, human 2Ig-B7H3 (B7H3-2Ig-His); assay: SPR, Biacore T200, 2Ig-B7H3-His on CM5 chip, 1:1 fit; 127I-labeled 8H9, lot P76501A
Description: as §1, §3

[7] = biological target: T2, human 2Ig-B7H3 (B7H3-2Ig-His); assay: SPR; 127I-labeled 8H9
Description: as §1, §3

[8] = biological target: T2, human 2Ig-B7H3 (B7H3-2Ig-His); assay: SPR, Biacore T200, 2Ig-B7H3-His on CM5 chip, 1:1 fit; remark: listed apart in the source
Description: as §1, §3, §2

[9] = biological target: T1, human 4Ig-B7H3 (B7H3-4Ig-His); assay: SPR; remark: listed apart in the source
Description: as §1, §3

[10] = biological target: T2, human 2Ig-B7H3 (B7H3-2Ig-His); assay: SPR; remark: listed apart in the source
Description: as §1, §3

[11] = biological target: T2, human 2Ig-B7H3 (B7H3-2Ig-His); assay: SPR, Biacore T200, 2Ig-B7H3-His on CM5 chip, 1:1 fit; CHX-A''-DTPA conjugate, CAR 6.1, unlabeled
[12] = biological target: T1, human 4Ig-B7H3 (B7H3-4Ig-His); assay: SPR, Biacore T200, 4Ig-B7H3-His on CM5 chip, 1:1 fit; remark: listed apart in the source
Description: as §1, §3

[13] = biological target: T2, human 2Ig-B7H3 (B7H3-2Ig-His); assay: SPR, Biacore T200, 2Ig-B7H3-His on CM5 chip, 1:1 fit; DOTA conjugate, CAR 11.7, unlabeled

Binder | Kd [1] | t ½ [1] | Kd [2] | t ½ [2] | t ½ [3] | Kd [4] | Kd [5] | t ½ [5] | Kd [6] | Kd [7] | T ½ [8] | Kd [9] | t ½ [9] | t ½ [10] | Kd [11] | Kd [12] | t ½ [12] | Kd [13]
175Lu-DTPA-8H9-antibody (CAR3.6) (antibody, mouse IgG1, kappa, V domains shown, p-SCN-Bn-CHX-A″-DTPA conjugated (CAR 3.6 per antibody), labelled with cold lutetium-175; sites not stated) VH: QVQLQQSGAELVKPGASVKLSCKASGYTFTNYDINWVRQRPEQGLEWIGWIFPGDGSTQYNEKFKGKATLTTDTSSSTAYMQLSRLTSEDSAVYFCARQTTATWFAYWGQGTLVTVSA VL: DIVMTQSPATLSVTPGDRVSLSCRASQSISDYLHWYQQKSHESPRLLIKYASQSISGIPSRFSGSGSGSDFTLSINSVEPEDVGVYYCQNGHSFPLTFGAGTKLELKR | 18.5 nM | 0.722 h | 18.5 nM | 0.722 h | 5 h | 2.34 nM | 2.34 nM | 5 h |  |  |  |  |  |  |  |  |  | 
127I-8H9-antibody P76501A (antibody, mouse IgG1, kappa, V domains shown, labelled with iodine-127; sites not stated) VH: QVQLQQSGAELVKPGASVKLSCKASGYTFTNYDINWVRQRPEQGLEWIGWIFPGDGSTQYNEKFKGKATLTTDTSSSTAYMQLSRLTSEDSAVYFCARQTTATWFAYWGQGTLVTVSA VL: DIVMTQSPATLSVTPGDRVSLSCRASQSISDYLHWYQQKSHESPRLLIKYASQSISGIPSRFSGSGSGSDFTLSINSVEPEDVGVYYCQNGHSFPLTFGAGTKLELKR | 0.666 nM | 4.39 h | 0.666 nM | 4.39 h | 308 h |  |  | 308 h | < 0.0787 nM | < 0.0787 nM |  |  |  |  |  |  |  | 
8H9 antibody conjugated with p-SCN-Bn-CHX-A″-DTPA, CAR 6.1 (antibody, mouse IgG1, kappa, V domains shown, p-SCN-Bn-CHX-A″-DTPA conjugated, CAR 6.1 per antibody; sites not stated, Chelator conjugate, not metal-labelled) VH: QVQLQQSGAELVKPGASVKLSCKASGYTFTNYDINWVRQRPEQGLEWIGWIFPGDGSTQYNEKFKGKATLTTDTSSSTAYMQLSRLTSEDSAVYFCARQTTATWFAYWGQGTLVTVSA VL: DIVMTQSPATLSVTPGDRVSLSCRASQSISDYLHWYQQKSHESPRLLIKYASQSISGIPSRFSGSGSGSDFTLSINSVEPEDVGVYYCQNGHSFPLTFGAGTKLELKR |  |  |  |  |  |  |  |  |  |  | 0.394 h | 53.8 nM | 0.215 h | 0.394 h | 24.3 nM | 53.8 nM | 0.215 h | 
8H9 antibody conjugated with p-SCN-Bn-DOTA, CAR 11.7 (antibody, mouse IgG1, kappa, V domains shown, p-SCN-Bn-DOTA conjugated, CAR 11.7 per antibody; sites not stated, Chelator conjugate, not metal-labelled) VH: QVQLQQSGAELVKPGASVKLSCKASGYTFTNYDINWVRQRPEQGLEWIGWIFPGDGSTQYNEKFKGKATLTTDTSSSTAYMQLSRLTSEDSAVYFCARQTTATWFAYWGQGTLVTVSA VL: DIVMTQSPATLSVTPGDRVSLSCRASQSISDYLHWYQQKSHESPRLLIKYASQSISGIPSRFSGSGSGSDFTLSINSVEPEDVGVYYCQNGHSFPLTFGAGTKLELKR |  |  |  |  |  |  |  |  |  |  | 3.72 h |  |  |  |  | 18.9 nM | 0.756 h | 2.99 nM
